Assay results from patent US20160061839A1 (LABORATORY CORPORATION OF AMERICA, published 2016).

Columns and labels:
Her-3 = molecular target: T1, Her-3 (human, UniProt P21860 20-1342); experiment: IHC on FFPE 293H3-clone 1 cells over-expressing HER3
T1 construct: whole, on cells; In the IHC and VERATAG assays the protein stood in formalin-fixed, paraffin-embedded cells or tumor sections; also called ErbB3; c-erb-B3

Her-2 = molecular target: T2, Her-2 (human, UniProt P04626 23-1255); experiment: IHC on FFPE SKOV3 cells (high HER2, low HER3)
T2 construct: whole, on cells; also called ErbB2; c-Erb-B2

T1 sequence (P21860 20-1342): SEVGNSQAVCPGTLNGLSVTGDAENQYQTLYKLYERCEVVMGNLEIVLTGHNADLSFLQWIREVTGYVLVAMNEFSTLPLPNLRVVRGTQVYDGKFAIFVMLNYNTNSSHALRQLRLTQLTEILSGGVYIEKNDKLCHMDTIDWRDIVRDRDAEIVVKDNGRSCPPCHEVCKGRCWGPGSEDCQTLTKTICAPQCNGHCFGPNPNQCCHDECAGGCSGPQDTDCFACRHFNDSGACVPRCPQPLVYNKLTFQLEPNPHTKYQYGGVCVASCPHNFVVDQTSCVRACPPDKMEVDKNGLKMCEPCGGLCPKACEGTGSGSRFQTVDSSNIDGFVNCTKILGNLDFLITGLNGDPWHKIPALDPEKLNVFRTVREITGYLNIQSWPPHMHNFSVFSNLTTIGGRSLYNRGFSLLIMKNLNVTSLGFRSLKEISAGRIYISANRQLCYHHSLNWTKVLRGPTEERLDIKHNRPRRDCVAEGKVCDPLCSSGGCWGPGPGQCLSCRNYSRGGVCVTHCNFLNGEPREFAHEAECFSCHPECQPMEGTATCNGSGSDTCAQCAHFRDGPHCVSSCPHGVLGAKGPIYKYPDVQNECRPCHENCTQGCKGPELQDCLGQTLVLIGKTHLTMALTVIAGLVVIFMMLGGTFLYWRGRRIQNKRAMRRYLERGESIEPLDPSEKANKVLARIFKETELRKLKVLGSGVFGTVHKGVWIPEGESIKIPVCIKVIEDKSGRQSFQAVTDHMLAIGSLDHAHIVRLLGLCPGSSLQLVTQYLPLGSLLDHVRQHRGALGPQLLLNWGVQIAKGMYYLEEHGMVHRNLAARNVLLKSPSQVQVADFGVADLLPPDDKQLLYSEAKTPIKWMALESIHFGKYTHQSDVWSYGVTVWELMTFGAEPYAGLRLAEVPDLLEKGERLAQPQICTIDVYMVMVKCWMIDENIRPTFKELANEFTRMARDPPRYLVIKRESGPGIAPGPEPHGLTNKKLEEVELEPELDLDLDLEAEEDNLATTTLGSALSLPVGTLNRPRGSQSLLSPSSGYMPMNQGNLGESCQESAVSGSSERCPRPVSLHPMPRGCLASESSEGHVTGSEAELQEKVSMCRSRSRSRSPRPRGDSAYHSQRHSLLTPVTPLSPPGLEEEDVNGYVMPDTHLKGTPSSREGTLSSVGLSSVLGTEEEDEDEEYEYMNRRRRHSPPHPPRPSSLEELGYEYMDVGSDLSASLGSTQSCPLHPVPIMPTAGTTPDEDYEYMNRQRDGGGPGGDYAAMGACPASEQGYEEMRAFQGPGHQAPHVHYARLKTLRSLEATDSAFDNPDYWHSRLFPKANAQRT

binding result (Her-3): binds
binding result (Her-2): no binding
B1: Her3.B9A11.H1 (antibody, V domains shown)
VH: EVQLQQPGTVLARPGASVRMSCKASGYTFTSYWMHWVKQRPGQGLEWIGAIYPGNSDTRDNQKFKGKAELTAVTSASTAYMELSSLTNEDSAVYYCTSYYFDGAGYFDFWGQGTTLTVSS
VL: DIVMSQSPSSLAVSAGEKVTLSCKSSQSLLNSRTRKNYLAWYQQKPGQSPKLLIYWASTRESGVPDRFTGSGSGTDFTLTVSSVQAEDLAVYYCKQSYNLWTFGGGTKLEIK
notes: Mouse hybridoma monoclonal antibody; The matched isotype control is IgG1; also called B9A11-biotin
